Test results as given in the supplement of paper PMC10065799, “High-throughput profiling of sequence recognition by tyrosine kinases and SH2 domains using bacterial peptide display” (eLife, 2023).

Key:
SHP2-C SH2 = assay: SH2 binding enrichment of the phosphorylated peptide, bacterial display (enrichment ratio); higher = better substrate or ligand; peptides without Tyr show the background
Grb2 SH2 = Grb2 SH2 (UniProt P62993); assay: as above
c-Src SH2 = assay: as above
Fer (mouse) = assay: phosphorylation enrichment, bacterial display (enrichment ratio); higher = better substrate or ligand; peptides without Tyr show the background
Jak2 = Jak2 (UniProt O60674); assay: as above
MERTK = MERTK (UniProt Q12866); assay: as above
FGFR3 = FGFR3 (UniProt P22607); assay: as above
Hck = Hck (UniProt P08631); assay: as above
Fes = Fes (UniProt P07332); assay: as above
c-Abl (mouse) = assay: as above
c-Src = assay: as above
AncSZ = assay: as above
FGFR1 = FGFR1 (UniProt P11362); assay: as above
EPHB1 = EPHB1 (UniProt P54762); assay: as above
EPHB2 = EPHB2 (UniProt P29323); assay: as above
Fyn = Fyn (UniProt P06241); assay: as above
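Throughout, for SH2 binding enrichment of the phosphorylated peptide, bacterial display: peptide library displayed on the E. coli surface as eCPX fusions, selected cells deep-sequenced, score is each peptide's frequency after selection divided by its frequency in the input.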
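Throughout, for phosphorylation enrichment, bacterial display: 11-residue human phosphosite peptides and single-mutation variants displayed on the E. coli surface, counted by deep sequencing, each peptide's frequency after selection divided by its frequency in the unselected input library; frequency after pTyr selection over input frequency; kinase dosed for 20-30% of maximal phosphorylation in three min.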

Chain of MERTK (Q12866 whole entry, looked up): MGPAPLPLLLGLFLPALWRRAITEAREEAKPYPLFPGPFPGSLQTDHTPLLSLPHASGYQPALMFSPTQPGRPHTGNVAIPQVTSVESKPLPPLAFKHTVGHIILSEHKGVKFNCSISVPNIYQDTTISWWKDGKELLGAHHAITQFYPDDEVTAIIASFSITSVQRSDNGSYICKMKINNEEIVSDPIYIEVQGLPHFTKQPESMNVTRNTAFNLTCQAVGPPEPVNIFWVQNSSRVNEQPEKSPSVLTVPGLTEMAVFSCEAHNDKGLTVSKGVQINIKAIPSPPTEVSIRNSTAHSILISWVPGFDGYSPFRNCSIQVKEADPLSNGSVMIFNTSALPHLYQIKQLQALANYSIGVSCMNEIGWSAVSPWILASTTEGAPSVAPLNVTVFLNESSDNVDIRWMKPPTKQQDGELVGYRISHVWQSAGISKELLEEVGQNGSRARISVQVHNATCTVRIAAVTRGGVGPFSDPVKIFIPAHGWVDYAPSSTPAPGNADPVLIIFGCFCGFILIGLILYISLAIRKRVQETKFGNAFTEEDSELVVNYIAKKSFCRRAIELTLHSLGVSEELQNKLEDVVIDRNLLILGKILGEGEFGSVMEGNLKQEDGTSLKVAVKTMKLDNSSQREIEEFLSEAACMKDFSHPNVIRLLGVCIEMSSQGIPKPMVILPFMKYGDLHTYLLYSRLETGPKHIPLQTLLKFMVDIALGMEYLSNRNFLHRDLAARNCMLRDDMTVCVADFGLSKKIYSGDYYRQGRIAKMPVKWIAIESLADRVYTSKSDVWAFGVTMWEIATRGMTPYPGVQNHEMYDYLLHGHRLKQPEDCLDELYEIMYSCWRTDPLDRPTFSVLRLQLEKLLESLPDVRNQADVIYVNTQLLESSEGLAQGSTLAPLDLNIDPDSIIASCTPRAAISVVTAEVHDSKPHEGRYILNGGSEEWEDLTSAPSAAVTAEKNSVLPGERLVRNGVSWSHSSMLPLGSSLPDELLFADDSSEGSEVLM
Chain of Hck (P08631 whole entry, looked up): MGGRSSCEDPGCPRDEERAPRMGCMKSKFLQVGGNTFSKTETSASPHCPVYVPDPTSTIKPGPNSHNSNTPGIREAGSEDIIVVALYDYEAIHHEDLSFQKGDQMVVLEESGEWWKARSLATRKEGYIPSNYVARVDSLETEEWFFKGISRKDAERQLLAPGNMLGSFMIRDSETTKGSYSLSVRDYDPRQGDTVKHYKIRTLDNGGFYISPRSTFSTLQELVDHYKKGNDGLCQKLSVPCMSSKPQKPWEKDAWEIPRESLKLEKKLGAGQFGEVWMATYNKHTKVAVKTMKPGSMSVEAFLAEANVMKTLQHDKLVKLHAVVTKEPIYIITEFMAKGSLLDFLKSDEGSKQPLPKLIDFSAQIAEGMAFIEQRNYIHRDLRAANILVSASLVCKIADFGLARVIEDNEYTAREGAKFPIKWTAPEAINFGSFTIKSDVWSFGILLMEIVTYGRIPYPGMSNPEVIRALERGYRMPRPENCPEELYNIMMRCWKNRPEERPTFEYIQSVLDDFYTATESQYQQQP
Chain of Fyn (P06241 whole entry, looked up, the tested form may be a part): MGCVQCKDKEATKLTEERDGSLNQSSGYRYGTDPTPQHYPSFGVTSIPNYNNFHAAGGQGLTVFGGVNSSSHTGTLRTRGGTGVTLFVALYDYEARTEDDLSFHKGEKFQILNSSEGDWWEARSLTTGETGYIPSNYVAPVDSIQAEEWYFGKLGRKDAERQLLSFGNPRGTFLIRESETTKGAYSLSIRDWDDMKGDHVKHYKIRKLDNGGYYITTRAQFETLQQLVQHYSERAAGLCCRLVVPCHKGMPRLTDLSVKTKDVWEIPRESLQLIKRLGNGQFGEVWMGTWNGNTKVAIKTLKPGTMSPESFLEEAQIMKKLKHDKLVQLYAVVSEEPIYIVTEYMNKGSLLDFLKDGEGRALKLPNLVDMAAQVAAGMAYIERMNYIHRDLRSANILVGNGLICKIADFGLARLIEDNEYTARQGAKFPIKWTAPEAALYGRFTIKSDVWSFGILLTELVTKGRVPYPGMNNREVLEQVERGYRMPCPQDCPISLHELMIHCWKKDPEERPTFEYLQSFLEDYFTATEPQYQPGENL
Chain of Jak2 (O60674 whole entry, looked up): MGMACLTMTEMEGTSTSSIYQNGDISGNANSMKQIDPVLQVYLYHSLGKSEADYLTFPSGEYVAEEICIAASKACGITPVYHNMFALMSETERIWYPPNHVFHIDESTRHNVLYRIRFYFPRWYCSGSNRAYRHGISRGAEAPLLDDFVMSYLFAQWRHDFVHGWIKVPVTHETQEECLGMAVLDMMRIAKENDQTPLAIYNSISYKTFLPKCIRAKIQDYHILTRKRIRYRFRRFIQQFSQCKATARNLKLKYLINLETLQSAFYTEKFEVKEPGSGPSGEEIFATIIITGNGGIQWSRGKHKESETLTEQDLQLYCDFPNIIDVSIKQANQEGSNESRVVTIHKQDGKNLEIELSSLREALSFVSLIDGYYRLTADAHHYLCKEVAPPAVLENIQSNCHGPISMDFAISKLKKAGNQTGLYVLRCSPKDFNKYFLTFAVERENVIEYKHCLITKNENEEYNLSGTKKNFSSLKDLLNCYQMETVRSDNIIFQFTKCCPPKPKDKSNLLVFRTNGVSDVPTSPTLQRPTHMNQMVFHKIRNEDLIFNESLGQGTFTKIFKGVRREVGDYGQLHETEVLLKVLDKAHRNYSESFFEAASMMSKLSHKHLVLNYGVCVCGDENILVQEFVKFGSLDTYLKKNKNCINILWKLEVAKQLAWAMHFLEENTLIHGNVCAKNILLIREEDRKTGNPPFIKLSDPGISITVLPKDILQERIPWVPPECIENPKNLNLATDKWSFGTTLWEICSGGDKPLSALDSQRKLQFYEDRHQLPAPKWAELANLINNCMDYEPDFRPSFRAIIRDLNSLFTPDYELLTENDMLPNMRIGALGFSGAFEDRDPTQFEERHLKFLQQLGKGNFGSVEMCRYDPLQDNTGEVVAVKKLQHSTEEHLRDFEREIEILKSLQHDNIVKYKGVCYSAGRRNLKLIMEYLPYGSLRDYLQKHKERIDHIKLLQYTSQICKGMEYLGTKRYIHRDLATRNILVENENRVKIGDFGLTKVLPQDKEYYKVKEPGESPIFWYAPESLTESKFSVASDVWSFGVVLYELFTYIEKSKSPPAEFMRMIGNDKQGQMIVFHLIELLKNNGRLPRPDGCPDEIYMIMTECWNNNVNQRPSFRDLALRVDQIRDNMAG
Chain of Fes (P07332 whole entry, looked up): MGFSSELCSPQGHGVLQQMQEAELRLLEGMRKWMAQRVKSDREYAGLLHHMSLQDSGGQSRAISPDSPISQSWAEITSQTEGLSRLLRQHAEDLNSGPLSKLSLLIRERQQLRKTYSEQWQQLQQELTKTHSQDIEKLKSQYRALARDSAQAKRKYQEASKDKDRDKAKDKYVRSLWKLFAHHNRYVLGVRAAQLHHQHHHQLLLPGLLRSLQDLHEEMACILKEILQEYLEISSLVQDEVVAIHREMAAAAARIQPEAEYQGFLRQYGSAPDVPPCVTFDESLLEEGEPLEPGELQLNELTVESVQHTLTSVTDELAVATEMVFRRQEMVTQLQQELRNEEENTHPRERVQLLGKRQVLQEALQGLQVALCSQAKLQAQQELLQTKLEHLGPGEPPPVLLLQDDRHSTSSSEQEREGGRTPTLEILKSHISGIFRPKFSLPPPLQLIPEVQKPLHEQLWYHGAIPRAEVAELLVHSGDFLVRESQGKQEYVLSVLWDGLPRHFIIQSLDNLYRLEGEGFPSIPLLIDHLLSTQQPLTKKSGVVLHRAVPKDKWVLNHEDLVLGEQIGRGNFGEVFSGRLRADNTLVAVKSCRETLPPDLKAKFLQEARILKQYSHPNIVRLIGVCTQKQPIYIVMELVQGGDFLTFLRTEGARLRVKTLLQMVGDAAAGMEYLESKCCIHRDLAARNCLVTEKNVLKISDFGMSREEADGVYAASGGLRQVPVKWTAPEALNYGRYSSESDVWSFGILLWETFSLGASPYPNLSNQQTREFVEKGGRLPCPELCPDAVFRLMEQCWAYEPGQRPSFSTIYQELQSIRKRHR
Chain of FGFR3 (P22607 whole entry, looked up): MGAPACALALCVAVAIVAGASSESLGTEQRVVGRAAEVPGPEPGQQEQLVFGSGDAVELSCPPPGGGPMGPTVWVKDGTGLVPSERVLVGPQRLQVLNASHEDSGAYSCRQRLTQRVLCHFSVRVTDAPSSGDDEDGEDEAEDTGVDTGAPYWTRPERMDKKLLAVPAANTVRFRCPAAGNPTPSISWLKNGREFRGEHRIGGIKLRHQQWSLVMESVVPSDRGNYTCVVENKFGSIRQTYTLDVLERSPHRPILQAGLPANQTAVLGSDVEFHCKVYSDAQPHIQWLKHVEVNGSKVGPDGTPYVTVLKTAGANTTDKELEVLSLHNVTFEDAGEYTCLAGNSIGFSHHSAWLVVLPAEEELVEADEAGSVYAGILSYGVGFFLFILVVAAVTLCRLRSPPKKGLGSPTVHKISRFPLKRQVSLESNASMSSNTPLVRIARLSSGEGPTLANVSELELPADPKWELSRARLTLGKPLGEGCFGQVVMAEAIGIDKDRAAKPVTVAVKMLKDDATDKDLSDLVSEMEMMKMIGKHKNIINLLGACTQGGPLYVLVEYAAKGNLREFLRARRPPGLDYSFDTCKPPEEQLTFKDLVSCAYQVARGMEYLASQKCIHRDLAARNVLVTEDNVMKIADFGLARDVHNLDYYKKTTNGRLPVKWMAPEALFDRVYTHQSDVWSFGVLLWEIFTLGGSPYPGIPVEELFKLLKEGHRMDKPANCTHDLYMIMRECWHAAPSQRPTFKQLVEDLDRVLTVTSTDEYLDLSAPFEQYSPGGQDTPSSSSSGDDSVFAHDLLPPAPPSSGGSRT
Chain of Grb2 SH2 (P62993 whole entry, looked up): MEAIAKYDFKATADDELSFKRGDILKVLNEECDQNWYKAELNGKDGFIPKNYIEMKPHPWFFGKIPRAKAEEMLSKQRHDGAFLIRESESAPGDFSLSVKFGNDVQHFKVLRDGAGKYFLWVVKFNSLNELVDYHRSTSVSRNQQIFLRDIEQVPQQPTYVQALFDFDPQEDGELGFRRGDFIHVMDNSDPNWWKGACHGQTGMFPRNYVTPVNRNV

| Sequence | SH2 binding enrichment (SHP2-C SH2) | SH2 binding enrichment (Grb2 SH2) | SH2 binding enrichment (c-Src SH2) | phosphorylation enrichment (Fer (mouse)) | phosphorylation enrichment (Jak2) | phosphorylation enrichment (MERTK) | phosphorylation enrichment (FGFR3) | phosphorylation enrichment (Hck) | phosphorylation enrichment (Fes) | phosphorylation enrichment (c-Abl (mouse)) | phosphorylation enrichment (c-Src) | phosphorylation enrichment (AncSZ) | phosphorylation enrichment (FGFR1) | phosphorylation enrichment (EPHB1) | phosphorylation enrichment (EPHB2) | phosphorylation enrichment (Fyn) |
| --- | --- | --- | --- | --- | --- | --- | --- | --- | --- | --- | --- | --- | --- | --- | --- | --- |
| INMKKYCKKDY [NTN1_Y490] | 0.864 | 0.948 | 0.87 | 0.434 | 0.698 | 0.402 | 0.592 | 0.461 | 0.912 | 0.824 | 0.401 | 0.626 | 0.45 | 0.424 | 0.298 | 0.391 |
| PPVVNYEEDAR [FER_Y402] | 1.01 | 0.745 | 0.806 | 0.585 | 1.4 | 0.856 | 0.968 | 0.64 | 1.86 | 0.824 | 0.534 | 1.26 | 0.569 | 0.957 | 0.892 | 0.896 |
| KTSGNYLAVTG [WDR19_Y28] | 0.654 | 0.824 | 0.427 | 0.404 | 0.449 | 0.757 | 0.457 | 0.454 | 0.57 | 0.445 | 0.42 | 0.573 | 0.5 | 0.974 | 0.517 | 0.536 |
| KDFNKYVAFIE [KDM4B_Y31_YF] | 1.02 | 0.864 | 1.42 | 0.434 | 0.744 | 0.424 | 0.581 | 0.505 | 0.836 | 0.629 | 0.456 | 0.799 | 0.399 | 0.43 | 0.429 | 0.513 |
| CFVFFYSFLLK [PTEN_Y178_R173C_YF] | 1.8 | 1.78 | 0.789 | 0.487 | 0.987 | 0.557 | 0.865 | 0.578 | 1.03 | 0.86 | 0.519 | 0.997 | 0.423 | 0.473 | 0.72 | 0.459 |
| GGFTRYCDGKK [PROS1_Y266_C265R_YF] | 0.881 | 0.972 | 0.753 | 0.436 | 0.653 | 0.403 | 0.449 | 0.403 | 0.722 | 0.601 | 0.423 | 0.771 | 0.369 | 0.393 | 0.315 | 0.368 |
| ADEEFYEIIAA [FEStide_F_2014] | 0.605 | 0.917 | 0.729 | 7.22 | 1.09 | 2.19 | 1.4 | 3.26 | 1.57 | 0.853 | 3.36 | 2.54 | 1.5 | 0.886 | 0.77 | 2.42 |
| WVYNHYRWIIW [BRCA2_Y2624] | 1.18 | 1.29 | 0.509 | 0.431 | 1.14 | 0.301 | 0.702 | 0.461 | 1.11 | 0.841 | 0.415 | 0.937 | 0.499 | 0.521 | 0.597 | 0.375 |
| VVEDGYEFFAK [PPP1CB_Y254] | 0.856 | 0.984 | 1.08 | 0.42 | 1.01 | 0.392 | 0.615 | 0.491 | 0.988 | 0.574 | 0.504 | 1.41 | 0.518 | 0.473 | 0.792 | 0.571 |
| PRIKTYMRPSP [TDP1_Y497_H493R] | 0.948 | 1.04 | 0.842 | 0.378 | 0.49 | 0.44 | 0.522 | 0.36 | 0.65 | 0.425 | 0.474 | 0.493 | 0.451 | 0.317 | 0.465 | 0.366 |
| ATARPYRPYII [LRP5_Y1528] | 0.86 | 1.04 | 0.784 | 0.482 | 0.465 | 0.468 | 0.545 | 0.413 | 0.793 | 0.688 | 0.581 | 0.675 | 0.396 | 0.457 | 0.362 | 0.55 |
| TAIFIYIRPKA [OR10C1_Y258_L255I] | 0.796 | 1.17 | 0.522 | 0.584 | 1.46 | 0.387 | 0.814 | 0.481 | 1.39 | 0.641 | 0.521 | 1.79 | 0.518 | 0.414 | 0.68 | 0.615 |
| RLNCIYYKDQT [RS1_Y165_W163C] | 0.456 | 1.15 | 0.527 | 0.497 | 1.21 | 1.57 | 0.751 | 0.889 | 1.16 | 0.897 | 1.74 | 1.01 | 0.971 | 0.722 | 0.639 | 0.878 |
| PVADPYDQSFE [MAPK14_Y323] | 0.797 | 0.927 | 0.971 | 0.759 | 2.29 | 0.894 | 0.896 | 0.989 | 1.86 | 2.38 | 0.982 | 1.66 | 0.941 | 0.695 | 0.632 | 0.828 |
| RAMRRYLEWGE [ERBB3_Y680_R683W] | 0.571 | 0.632 | 0.437 | 0.834 | 0.677 | 0.466 | 0.314 | 0.657 | 0.561 | 0.4 | 0.834 | 0.514 | 0.427 | 0.403 | 0.398 | 0.553 |
| PIPAAYNKYDQ [CDC73_Y290_R292K] | 1.33 | 0.39 | 0.478 | 0.394 | 0.754 | 0.617 | 0.448 | 0.595 | 0.904 | 0.944 | 0.689 | 0.707 | 0.608 | 0.417 | 0.599 | 0.46 |
| FADIAYNYRHG [PAH_Y166] | 0.717 | 0.877 | 0.52 | 0.456 | 0.754 | 0.404 | 0.561 | 0.462 | 0.887 | 0.577 | 0.398 | 0.711 | 0.403 | 0.45 | 0.503 | 0.423 |

| Sequence | SH2 binding enrichment (SHP2-C SH2) | SH2 binding enrichment (Grb2 SH2) | SH2 binding enrichment (c-Src SH2) | phosphorylation enrichment (Fer (mouse)) | phosphorylation enrichment (Jak2) | phosphorylation enrichment (MERTK) | phosphorylation enrichment (FGFR3) | phosphorylation enrichment (Hck) | phosphorylation enrichment (Fes) | phosphorylation enrichment (c-Abl (mouse)) | phosphorylation enrichment (c-Src) | phosphorylation enrichment (AncSZ) | phosphorylation enrichment (FGFR1) | phosphorylation enrichment (EPHB1) | phosphorylation enrichment (EPHB2) | phosphorylation enrichment (Fyn) |
| --- | --- | --- | --- | --- | --- | --- | --- | --- | --- | --- | --- | --- | --- | --- | --- | --- |
| LKGQVDILGRE [ASS1_Y359_Y359D] | 0.582 | 1.01 | 0.595 | 0.598 | 1.26 | 0.663 | 0.638 | 0.575 | 1.07 | 0.658 | 0.764 | 0.803 | 0.578 | 0.539 | 0.696 | 0.559 |
| TQNAVYSAANF [DDX5_Y535_G533A_YF] | 0.704 | 0.958 | 0.631 | 6.31 | 0.526 | 8.98 | 0.515 | 12 | 0.694 | 7.53 | 8.46 | 0.634 | 0.519 | 3.15 | 4.24 | 10.3 |
| LLREWYVQDPY [SIX3_Y225_L226V] | 0.856 | 1.05 | 1.36 | 0.566 | 0.798 | 0.44 | 0.771 | 0.328 | 1.05 | 0.674 | 0.641 | 1.18 | 0.597 | 0.598 | 0.675 | 0.531 |
| PEVSGYCHCAD [TG_Y234] | 0.549 | 0.912 | 0.565 | 1.14 | 2.21 | 0.936 | 1.56 | 1.08 | 2.79 | 1.83 | 1.2 | 2.1 | 1.11 | 3.57 | 1.4 | 0.976 |
| ISIFFYAKGQP [MPZ_Y82_H81Y_YF] | 0.529 | 1.33 | 0.406 | 0.554 | 1.43 | 0.527 | 0.865 | 0.573 | 1.52 | 1.25 | 0.548 | 1.33 | 0.544 | 0.608 | 0.611 | 0.395 |
| ADGLEYSRTEL [MMUT_Y287_G291E] | 0.596 | 0.717 | 0.447 | 0.56 | 0.747 | 0.437 | 0.637 | 0.547 | 0.873 | 0.621 | 0.461 | 1.03 | 0.552 | 0.483 | 0.572 | 0.527 |
| ASNFNYFFHRE [KCNA1_Y413_V408A_YF] | 1.03 | 1.31 | 0.6 | 0.415 | 0.805 | 0.453 | 0.748 | 0.654 | 1.01 | 0.571 | 0.43 | 1.03 | 0.506 | 0.511 | 0.556 | 0.372 |
| RVLHNYLVWRV [ECEL1_Y400] | 1.79 | 1.74 | 1.73 | 1.12 | 1.07 | 0.79 | 1.7 | 1.01 | 1.93 | 0.762 | 0.526 | 2.51 | 1.4 | 1.6 | 1.12 | 0.867 |
| QDGYSYPSRQM [LDLR_Y847] | 0.732 | 0.857 | 6.19 | 0.557 | 1.17 | 0.983 | 0.87 | 0.475 | 1.21 | 0.663 | 0.734 | 1.98 | 0.88 | 0.49 | 0.576 | 0.624 |
| KAALSYVSEIG [BPIFB2_Y36] | 0.58 | 0.914 | 0.457 | 0.387 | 0.668 | 0.326 | 0.558 | 0.476 | 0.636 | 0.453 | 0.372 | 0.555 | 0.456 | 0.352 | 0.385 | 0.364 |
| TEGNEYVFRVA | 0.69 | 0.708 | 0.493 | 0.44 | 0.949 | 0.421 | 0.822 | 0.486 | 1.28 | 0.647 | 0.528 | 1.08 | 0.647 | 0.593 | 0.627 | 0.583 |
| ISPPVYLTNEW [NRK_Y885] | 1.11 | 1.03 | 0.655 | 0.698 | 1.1 | 0.542 | 0.718 | 0.732 | 1.09 | 0.92 | 0.766 | 1.13 | 0.704 | 0.694 | 0.724 | 0.825 |
| MHDSNCVSKGS [PDGFRA_Y849_Y849C] | 0.609 | 0.86 | 0.572 | 0.388 | 0.683 | 0.384 | 0.485 | 0.456 | 0.72 | 0.559 | 0.414 | 0.57 | 0.456 | 0.396 | 0.367 | 0.387 |
| FSPPYYHRNCM [HGD_Y334_R330S] | 0.778 | 0.876 | 0.606 | 0.482 | 0.817 | 0.451 | 0.609 | 0.515 | 0.957 | 0.749 | 0.482 | 0.807 | 0.66 | 0.558 | 0.664 | 0.505 |
| RTMPDYTSFNT [EPHB2_Y912_I909M] | 0.463 | 0.935 | 0.521 | 0.705 | 0.692 | 0.459 | 1 | 0.591 | 0.947 | 0.618 | 1.31 | 1.38 | 1.05 | 0.724 | 0.961 | 1.07 |
| FETVKYFNNER [ABCB7_Y345_YF] | 1.04 | 0.862 | 0.509 | 0.465 | 0.702 | 0.288 | 0.606 | 0.381 | 0.898 | 0.567 | 0.345 | 0.828 | 0.417 | 0.564 | 0.445 | 0.39 |
